According to patent US20250179196A1 (Janssen / Centocor, published 2025):

Legend:
[1] = target: T1, human IL-23R expressed on the cell surface of stably transfected iLite and HEK cell lines (human, UniProt Q5VWK5 24-629); assay: flow cytometry on human IL-23R HEK cells, Expt D (8-point, 96well)
T1 construct: whole, on cells; Same receptor on two transfected cell lines; the cell line is named under assay; also called human IL-23R iLite cells; human IL-23R HEK cells
T1 sequence (looked up): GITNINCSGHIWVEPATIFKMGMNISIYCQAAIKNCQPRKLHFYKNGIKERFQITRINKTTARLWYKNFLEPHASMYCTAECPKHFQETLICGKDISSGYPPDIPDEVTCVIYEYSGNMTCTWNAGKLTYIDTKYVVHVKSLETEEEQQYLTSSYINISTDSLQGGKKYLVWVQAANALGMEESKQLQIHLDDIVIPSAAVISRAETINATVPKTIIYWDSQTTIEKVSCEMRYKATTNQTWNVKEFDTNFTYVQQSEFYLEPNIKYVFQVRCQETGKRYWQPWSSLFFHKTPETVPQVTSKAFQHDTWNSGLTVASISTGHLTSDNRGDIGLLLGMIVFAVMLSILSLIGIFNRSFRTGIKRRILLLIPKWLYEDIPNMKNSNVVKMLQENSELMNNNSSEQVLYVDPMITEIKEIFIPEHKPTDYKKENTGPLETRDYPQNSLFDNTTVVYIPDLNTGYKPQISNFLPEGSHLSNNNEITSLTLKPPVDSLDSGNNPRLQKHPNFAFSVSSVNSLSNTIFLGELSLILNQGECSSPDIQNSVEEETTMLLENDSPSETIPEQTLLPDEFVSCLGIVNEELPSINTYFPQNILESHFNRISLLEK
Experimental: HEK-IL-23R cell concentration response mAb binding (8-point, 96-well assay). […] HEK-IL-23R and HEK-parental cells (12.5 μL of each, 120000 cells total) were plated in 2× replicate on 96-well V-bottom plates (Corning, Cat #3357) into 37° C. warmed Assay medium containing serially diluted IL-23R mAbs to a final volume of 150 μL. IL-23R mAbs were allowed to bind to cells for 30 minutes, at 37° C. […] Cells were next washed twice in ice-cold stain buffer, then resuspended in a final volume of 30 μL with Sytox Green viability dye (ThermoFisher, Cat #S7020). Plates were kept on ice until run for analysis on the iQue. All washes were performed by centrifugation (800 rcf, 3 minutes) followed by flick decantation to remove supernatants. Cell-binding to HEK-IL-23R cells was measured with FlowJo, by gating for single, viable cells and determining the geometric mean fluorescence intensity (MFI) for the 647 detection antibody. Geometric mean fluorescence intensities were plotted over log mAb concentrations fitted with a dose response curve with variable slope using GraphPad Prism.

[2] = target: T1, human IL-23R expressed on the cell …; assay: flow cytometry on human IL-23R HEK cells, Expt E (11-point, 384well)
Experimental: HEK-IL-23R cell concentration response mAb binding (11-point, 384-well assay). […] IL-23R mAbs were allowed to bind to cells for 30 minutes, at 37° C. […] Cells were next washed twice in ice-cold stain buffer, then resuspended in a final volume of 10 μL with Sytox Green viability dye (ThermoFisher, Cat #S7020). Plates were kept on ice until run for analysis on the iQue. All washes were performed by centrifugation (800 rcf, 3 minutes) followed by automated aspiration to remove supernatants with plate washers. Cell-binding to HEK-IL-23R cells was measured with FlowJo, by gating for single, viable cells and determining the geometric mean fluorescence intensity (MFI) for the 647 detection antibody. Geometric mean fluorescence intensities were plotted over log mAb concentrations fitted with a dose response curve with variable slope using GraphPad Prism.

[3] = target: T2, Recombinant human IL-23 receptor (IL-23R) extracellular domain (ECD) protein (human, UniProt Q5VWK5 24-355); assay: SPR Biacore 8K, supernatant, analysis 2
T2 construct: also called human IL-23R ECD; hu IL-23R ECD
T2 sequence: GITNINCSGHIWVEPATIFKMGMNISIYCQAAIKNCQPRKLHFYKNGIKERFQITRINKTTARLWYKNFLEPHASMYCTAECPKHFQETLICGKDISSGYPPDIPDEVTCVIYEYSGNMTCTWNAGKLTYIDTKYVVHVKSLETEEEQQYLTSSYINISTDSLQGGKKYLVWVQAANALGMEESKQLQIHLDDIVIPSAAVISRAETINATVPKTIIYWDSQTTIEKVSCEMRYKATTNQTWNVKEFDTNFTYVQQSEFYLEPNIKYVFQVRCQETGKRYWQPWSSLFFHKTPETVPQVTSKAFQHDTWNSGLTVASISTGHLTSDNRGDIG
Experimental: (§1) Affinity by SPR using Biacore 8K. Affinity measurements using Surface Plasmon Resonance (SPR) were performed using a Biacore 8K system (Cytiva). […] Approximately 9000-10000 RU (response units) of mAbs were immobilized. The kinetic experiments were performed at 25° C. in running buffer 1× of (HBS-P+ Buffer 10× (Cytiva #BR100671)+100 μg/ml BSA). To perform kinetic experiments, approximately 150 RU of mAbs were captured followed by injections of human IL-23R or rat IL-23R at concentrations ranging from 0.8 nM to 500 nM (in a 5-fold serial dilution). The association phase was monitored for 3 minutes at 50 μL/min, then followed by 30 minutes of buffer flow (dissociation phase). […] The collected data were processed using Biacore insight Evaluation software (Version 3.0.12.15655). The kinetic analysis of the data was performed using a Langmuir 1:1 binding model. The result for each mAb was reported in the format of Ka (On-rate), Kd (Off-rate) and KD (equilibrium dissociation constant).

[4] = target: T2, Recombinant human IL-23 receptor …; assay: SPR Biacore 8K, supernatant, analysis 1
Experimental: as §1

B1: I23RB267 (antibody, mouse IgG2a, kappa, V domains shown)
VH: EVQLVQSGAEVKKPGESLKISCKGSGYSFTSYWIGWVRQMPGKGLEWMGIIYPGDSDTRYSPSFQGQVTISADKSISTAYLQWSSLKASDTAMYYCARVWYSSWDLDYWGQGTLVTVSS
VL: not shown
notes: phage display; human V, mouse IgG2a/kappa
With B1 the EC50 [1] was 9.4 nM.

B2: I23RB54 (antibody, mouse IgG2a, kappa, V domains shown)
VH: EVQLQQSGGGLVKPGGSLKLSCAASGFTFSSYAMSWVRQTPEKRLEWVAGISSGGSYIYYPDNVKGRFTISRDNARNTLYLQMSSLRSEDTAMYYCARKKSDYGAMDYWGQGTTLTVSS
VL: DIQMTQSPKFLLVSAGDRVTITCKASQSVSNDVAWYQQKPGQSPRLLIYYASNRYTGVPDRFTGSGYGTDFTFTISTVQAEDLAVYFCQQDYSSLPTFGAGTKLEMKR
notes: immunization; mouse IgG2a/kappa
In the case of B2, the EC50 [2] is reported as 35.2 nM and the “MFI (6.4 nM)” value [2] is reported as 63100 MFI.

B3: I23RB87 (antibody, mouse IgG2a, kappa, V domains shown)
VH: EFQLQQSGPELVKPGTSVKMSCKASGYTFTNYVMHWVKQKPGQGLEWIGYINPYDASPKYNEKFKGKAILTSDKSSSTAYMELSSLTSEDSAVYYCTRDAKLDYFDYWGQGTTLTVSS
VL: DIVMTQTTSSLSASLGDRVTISCRASQDISNYLNWYQQKPDGTVKLLIYYTSRLHSGVPSRFSGSGSGTDFSLTISNLEQEDIATYFCQQGITLPWTFGAGTKLELKR
notes: as for B2
B3 was tested, and the EC50 [2] was greater than 50 nM and the “MFI (6.4 nM)” value [2] was 86100 MFI.

B4: I23RB317 (antibody, mouse IgG2a, kappa, V domains shown)
VH: QVQLVQSGAEVKKPGSSVKVSCKASGGTFSSYAISWVRQAPGQGLEWMGGIIPIFGTANYAQKFQGRVTITADESTSTAYMELSSLRSEDTAVYYCARGNGVNYHSELDYWGQGTLVTVSS
VL: EIVLTQSPATLSLSPGERATLSCRASQSVDSFLAWYQQKPGQAPRLLIYTASNRATGIPARFSGSGSGTDFTLTISSLEPEDFAVYYCQQGNSAPFTFGQGTKVEIKR
notes: as for B1
In the case of B4, the EC50 [1] is reported as 31 nM.

B5: I23RB31 (antibody, mouse IgG2a, kappa, V domains shown)
VH: EFQLQQSGAEMVRPGASVKLSCKASGYTFTGYWMNWVKQRPGQGLEWIGKIDPSDTETHYNQNFKDKATLTVDKSSSTAYMQLNSLTSEDSAVYYCARWGLGRNFAMDYWGQGTTLTVSS
VL: DIVLTQSPATLSVTPGDRVSLSCRASQSISDHLHWYQQKSHESPRLLIKFASQSISGIPSRFSGSGSGSDFTLSIDSVEPEDVGVYYCQNGHSFPLTFGSGTKLEIKR
notes: mouse immunization; mouse IgG2a/kappa
B5 gave a Kd [3] of 8.55 nM, a koff [3] of 0.000781 s⁻¹ and a kon [3] of 91300 M⁻¹ s⁻¹. For the same binder, the Kd [4] was 18.9 nM, the koff [4] was 0.00123 s⁻¹ and the kon [4] was 65500 M⁻¹ s⁻¹.

B6: I23RB67 (antibody, mouse IgG2a, kappa, V domains shown)
VH: EVQLQQSGAELVKPGASVKLSCKASGYTFTSYWINWVKQRPGQGLEWIGNIYPGSSSTNYNEKFKSKATLTVDTSSSTAYMQLSSLTSDDSAVYYCARSAYGNRLAMDYWGQGTTLTVSS
VL: DVVMTQSHKFMSTSVGDRVSITCKASQDVSTAVAWYQQKPGQSPKLLIYSAFYRYTGVPDRFTGSGSGTDFTFTISSVQAEDLAVYYCQQHYSTPYTFGGGTKLELKR
notes: as for B2
For B6, the EC50 [2] was 18 nM and the “MFI (6.4 nM)” value [2] was 80900 MFI.

B7: I23RB321 (antibody, mouse IgG2a, kappa, V domains shown)
VH: QVQLVQSGAEVKKPGSSVKVSCKASGGTFSSYGISWVRQAPGQGLEWMGWISAIFGTTNYAQKFQGRVTITADESTSTAYMELSSLRSEDTAVYYCARHWLQSFDYWGQGTLVTVSS
VL: DIQMTQSPSSLSASVGDRVTITCRASQSIGGDLNWYQQKPGKAPKLLIYAASSLQSGVPSRFSGSGSGTDFTLTISSLQPEDFATYYCQQSYSTPLTFGQGTKVEIKR
notes: as for B1
For B7, the EC50 [1] was 18.6 nM.

B8: I23RB264 (antibody, mouse IgG2a, kappa, V domains shown)
VH: QVQLVQSGAEVKKPGSSVKVSCKASGGTFSSYAISWVRQAPGQGLEWMGGIIPIFGTANYAQKFQGRVTITADESTSTAYMELSSLRSEDTAVYYCARRSSPGFDYWGQGTLVTVSS
VL: DIQMTQSPSSLSASVGDRVTITCRASQSIDNDLNWYQQKPGKAPKLLIYNASSLQSGVPSRFSGSGSGTDFTLTISSLQPEDFATYYCQQPYSIPLTFGQGTKVEIKR
notes: as for B1
With B8 the EC50 [1] was greater than 50 nM.

B9: I23RB261 (antibody, mouse IgG2a, kappa, V domains shown)
VH: QVQLVQSGAEVKKPGSSVKVSCKASGGTFSSYAISWVRQAPGQGLEWMGWISPYFGTANYAQKFQGRVTITADESTSTAYMELSSLRSEDTAVYYCARMYRQGFDYWGQGTLVTVSS
VL: DIQMTQSPSSLSASVGDRVTITCRASQSINDDLNWYQQKPGKAPKLLIYAASSLQSGVPSRFSGSGSGTDFTLTISSLQPEDFATYYCQQSYSTPLTFGQGTKVEIKR
notes: as for B1
In the case of B9, the EC50 [1] is reported as 9.2 nM.

B10: I23RB313 (antibody, mouse IgG2a, kappa, V domains shown)
VH: QVQLVQSGAEVKKPGSSVKVSCKASGGTFSSYGISWVRQAPGQGLEWMGWISAIFGTTNYAQKFQGRVTITADESTSTAYMELSSLRSEDTAVYYCARGTVPGFDYWGQGTLVTVSS
VL: DIQMTQSPSSLSASVGDRVTITCRASQSIGEDLNWYQQKPGKAPKLLIYAASSLQSGVPSRFSGSGSGTDFTLTISSLQPEDFATYYCQQSYSTPLTFGQGTKVEIKR
notes: as for B1
B10 showed an EC50 [1] greater than 50 nM.

B11: I23RB319 (antibody, mouse IgG2a, kappa, V domains shown)
VH: QVQLVQSGAEVKKPGSSVKVSCKASGGTFSSYGISWVRQAPGQGLEWMGWISAIFGTTNYAQKFQGRVTITADESTSTAYMELSSLRSEDTALYYCARPLKQAFDYWGQGTLVTVSS
VL: DIQMTQSPSSLSASVGDRVTITCRASQSITDDLNWYQQKPGKAPKLLIYAASSLQSGVPSRFSGSGSGTDFTLTISSLQPEDFATYYCQQSYSTPLTFGQGTKVEIKR
notes: as for B1
For B11, the EC50 [1] was 8.7 nM.

B12: I23RB78 (antibody, mouse IgG2a, kappa, V domains shown)
VH: EFQLQQSGGGLVKPGGSLKLSCAASGFTFSNYTMSWVRQTPEKRLKWVACISSGGGNTYYPDSVKGRFTISRDNARNTLYLQMSSLRSEDTAMYYCARRNYRRAMDYWGQGTSVTVSS
VL: DIVMTQSPASLAVSLGQRATISCRASESVDSYGISFMHWYQQKPGQPPKLLIYRASNLESGIPARFSGSGSRTDFTLTINPVEADDVATYYCQQSNEDPWTFGAGTGLEIKR
notes: as for B2
In the case of B12, the EC50 [2] is reported as 15.8 nM and the “MFI (6.4 nM)” value [2] is reported as 84200 MFI.

B13: I23RB102 (antibody, mouse IgG2a, kappa, V domains shown)
VH: QVQLQQPGAELVKPGASVKVSCKASGYTFTKYWINWMNQRPGQGLEWIGNIYPGSISTNYNEKFKSKVTLTVDISSSTAYMQLSSLTSDDSAVYYCARGDFYALDYWGQGTTLTVSS
VL: DIQMTQSPASLSVSVGETVTITCRASENIYSHITWYQLKQGKSPQLLVYASTNLADDVPSRFSGSGSGTQYSLKINSLLSEDFGTYYCQHFWGTPWTFGGGTKLEMKR
notes: as for B2
For B13, the EC50 [2] was 8.6 nM and the “MFI (6.4 nM)” value [2] was 258000 MFI.
